# Results published in US20220177587A1, “METHODS AND USES OF VARIANT CD80 FUSION PROTEINS AND RELATED CONSTRUCTS” (Alpine Immune Sciences, Inc., priority 2018, published 2022).
# What was measured:
# [1] = molecular target: PD-L1 (human) (UniProt Q9NZQ7)
# Target sequence in this assay (Q9NZQ7 19-290): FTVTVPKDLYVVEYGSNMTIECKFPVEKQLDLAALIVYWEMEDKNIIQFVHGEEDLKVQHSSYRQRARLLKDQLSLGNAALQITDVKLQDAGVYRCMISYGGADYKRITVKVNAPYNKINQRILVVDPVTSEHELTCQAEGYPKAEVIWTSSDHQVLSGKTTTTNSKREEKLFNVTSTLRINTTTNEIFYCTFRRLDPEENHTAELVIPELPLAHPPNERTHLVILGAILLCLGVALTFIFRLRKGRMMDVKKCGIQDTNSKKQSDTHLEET
# [2] = molecular target: CD28 (human) (UniProt P10747)
# [3] = molecular target: CD28 (human) (UniProt P10747); remark: listed apart in the source
# [4] = molecular target: PD-L1 (human) (UniProt Q9NZQ7); assay: flow cytometry, CHO cells stably expressing PD-L1
# Target sequence in this assay (Q9NZQ7 19-290): as above
# [5] = molecular target: PD-L1 (human) (UniProt Q9NZQ7); remark: listed apart in the source
# Target sequence in this assay (Q9NZQ7 19-290 limits assumed): as the sequence (Q9NZQ7 19-290) above
# [6] = molecular target: CD28 (human) (UniProt P10747); remark: listed apart in the source
# [7] = molecular target: PD-L1 (human) (UniProt Q9NZQ7); assay: flow cytometry, MFI on PD-L1 cells over MFI on CD28 cells
# Target sequence in this assay (Q9NZQ7 19-290): as above
# [8] = molecular target: CD28 (human) (UniProt P10747); assay: flow cytometry, Jurkat cells (CD28)
# [9] = molecular target: human CTLA-4 (human) (UniProt P16410); assay: flow cytometry, CHO cells stably expressing CTLA4
# human CTLA-4 (human), sequence (P16410 36-223): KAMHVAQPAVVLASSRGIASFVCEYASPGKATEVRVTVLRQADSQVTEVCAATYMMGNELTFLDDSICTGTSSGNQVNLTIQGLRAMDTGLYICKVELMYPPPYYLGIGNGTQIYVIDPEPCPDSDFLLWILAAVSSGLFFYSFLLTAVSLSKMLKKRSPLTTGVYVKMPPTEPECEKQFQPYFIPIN
# [10] = molecular target: CD28 (human) (UniProt P10747); assay: flow cytometry, Jurkat/IL2 reporter cells (endogenous CD28)
# [11] = molecular target: human CTLA-4 (human) (UniProt P16410); assay: flow cytometry, CHO cells expressing huCTLA4
# [12] = molecular target: PD-L1 (human) (UniProt Q9NZQ7); remark: listed apart in the source
# Target sequence in this assay (Q9NZQ7 19-290): as the sequence (Q9NZQ7 19-290) above
# [13] = molecular target: CD28 (human) (UniProt P10747); remark: listed apart in the source
substance,measurement,setting,value
CD80 E35D/M43L/L70M IgV-Fc (effector) (Fc fusion),"Jurkat/IL2 reporter RLU at 50 nM, K562/OKT3/PD-L1 aAPC",[1],2780 RLU
same,"Jurkat/IL2 reporter RLU at 50 nM, K562/OKT3/PD-L1 aAPC",[2],2780 RLU
same,"Jurkat/IL2 reporter RLU at 50 nM, K562/OKT3 aAPC without PD-L1",[2],1570 RLU
same,"IL-2 release, primary T cells + K562/OKT3 (No PD-L1), 100 nM",[3],10500
variant CD80 IgV-Fc H18Y/A26E/E35D/M47L/A71G (Fc fusion),Fold change to WT CD80,[4],387 fold
same,MFI at 33.3 nM,[4],16900 MFI
same,"IL-2 luciferase reporter, fold increase over WT CD80-IgV-Fc at 5.0 nM",[5],2.42 fold
same,"IL-2 luciferase reporter, fold increase over WT CD80-IgV-Fc at 5.0 nM",[6],2.42 fold
same,Ratio of PDL1:CD28,[7],44.6
same,Fold change to WT CD80,[8],8.6 fold
same,MFI at 33.3 nM,[8],379 MFI
same,Fold change to WT CD80,[9],14.2 fold
same,MFI at 33.3 nM,[9],19400 MFI
variant CD80 IgV-Fc Q33R/E35D/D46E/M47I (Fc fusion),MFI at 33.3 nM,[10],303 MFI
same,MFI at 33.3 nM,[11],3560 MFI
variant CD80 IgV-Fc H18Y/A26E/V68M/A71G/D90G (Fc fusion),Fold change to WT CD80,[4],639 fold
same,MFI at 33.3 nM,[4],27900 MFI
same,"IL-2 luciferase reporter, fold increase over WT CD80-IgV-Fc at 5.0 nM",[5],2.5 fold
same,"IL-2 luciferase reporter, fold increase over WT CD80-IgV-Fc at 5.0 nM",[6],2.5 fold
same,Ratio of PDL1:CD28,[7],10.4
same,Fold change to WT CD80,[8],61.1 fold
same,MFI at 33.3 nM,[8],2680 MFI
same,Fold change to WT CD80,[9],13.5 fold
same,MFI at 33.3 nM,[9],18300 MFI
CD80 E35D/M47L IgV-Fc (effector) (Fc fusion),"Jurkat/IL2 reporter RLU at 50 nM, K562/OKT3/PD-L1 aAPC",[1],5040 RLU
same,"Jurkat/IL2 reporter RLU at 50 nM, K562/OKT3/PD-L1 aAPC",[2],5040 RLU
same,"Jurkat/IL2 reporter RLU at 50 nM, K562/OKT3 aAPC without PD-L1",[2],8680 RLU
same,"IL-2 release, primary T cells + K562/OKT3 (No PD-L1), 100 nM",[3],26800
CD80 E23G/A26S/E35D/T62N/A71D/L72V/L85M IgV-Fc (effector) (Fc fusion),"Jurkat/IL2 reporter RLU at 50 nM, K562/OKT3/PD-L1 aAPC",[1],4140 RLU
same,"Jurkat/IL2 reporter RLU at 50 nM, K562/OKT3/PD-L1 aAPC",[2],4140 RLU
same,"Jurkat/IL2 reporter RLU at 50 nM, K562/OKT3 aAPC without PD-L1",[2],7860 RLU
same,"IL-2 release, primary T cells + K562/OKT3 (No PD-L1), 100 nM",[3],27000
CD80 H18Y/A26T/E35D/A71D/L85Q IgV-Fc (inert) (Fc fusion),"Jurkat/IL2 reporter RLU at 50 nM, CHO/OKT3/PD-L1 aAPC",[12],1160 RLU
same,"Jurkat/IL2 reporter RLU at 50 nM, CHO/OKT3/PD-L1 aAPC",[13],1160 RLU
same,"Jurkat/IL2 reporter RLU at 50 nM, CHO/OKT3 aAPC without PD-L1",[13],926 RLU
CD80 E35D/M47I/L70M IgV-Fc (effector) (Fc fusion),"Jurkat/IL2 reporter RLU at 50 nM, K562/OKT3/PD-L1 aAPC",[1],3870 RLU
same,"Jurkat/IL2 reporter RLU at 50 nM, K562/OKT3/PD-L1 aAPC",[2],3870 RLU
same,"Jurkat/IL2 reporter RLU at 50 nM, K562/OKT3 aAPC without PD-L1",[2],5780 RLU
same,"IL-2 release, primary T cells + K562/OKT3 (No PD-L1), 100 nM",[3],25300
variant CD80 IgV-Fc H18Y/A26E/E35D/M47L/V68M (Fc fusion),Fold change to WT CD80,[4],566 fold
same,MFI at 33.3 nM,[4],24700 MFI
same,"IL-2 luciferase reporter, fold increase over WT CD80-IgV-Fc at 5.0 nM",[5],2.29 fold
same,"IL-2 luciferase reporter, fold increase over WT CD80-IgV-Fc at 5.0 nM",[6],2.29 fold
same,Ratio of PDL1:CD28,[7],39.4
same,Fold change to WT CD80,[8],14.3 fold
same,MFI at 33.3 nM,[8],626 MFI
same,Fold change to WT CD80,[9],14.7 fold
same,MFI at 33.3 nM,[9],20000 MFI
CD80 E35D/M47I IgV-Fc (effector) (Fc fusion),"Jurkat/IL2 reporter RLU at 50 nM, K562/OKT3/PD-L1 aAPC",[1],5700 RLU
same,"Jurkat/IL2 reporter RLU at 50 nM, K562/OKT3/PD-L1 aAPC",[2],5700 RLU
same,"Jurkat/IL2 reporter RLU at 50 nM, K562/OKT3 aAPC without PD-L1",[2],7140 RLU
same,"IL-2 release, primary T cells + K562/OKT3 (No PD-L1), 100 nM",[3],27200
variant CD80 IgV-Fc H18Y/A26E/E35D/V68M/A71G/D90G (Fc fusion),Fold change to WT CD80,[4],658 fold
same,MFI at 33.3 nM,[4],28700 MFI
same,"IL-2 luciferase reporter, fold increase over WT CD80-IgV-Fc at 5.0 nM",[5],2.41 fold
same,"IL-2 luciferase reporter, fold increase over WT CD80-IgV-Fc at 5.0 nM",[6],2.41 fold
same,Ratio of PDL1:CD28,[7],16.3
same,Fold change to WT CD80,[8],40 fold
same,MFI at 33.3 nM,[8],1760 MFI
same,Fold change to WT CD80,[9],17.2 fold
same,MFI at 33.3 nM,[9],23400 MFI
CD80 E35D/D46V/L85Q IgV-Fc (effector) (Fc fusion),"Jurkat/IL2 reporter RLU at 50 nM, K562/OKT3/PD-L1 aAPC",[1],4130 RLU
same,"Jurkat/IL2 reporter RLU at 50 nM, K562/OKT3/PD-L1 aAPC",[2],4130 RLU
same,"Jurkat/IL2 reporter RLU at 50 nM, K562/OKT3 aAPC without PD-L1",[2],7020 RLU
same,"IL-2 release, primary T cells + K562/OKT3 (No PD-L1), 100 nM",[3],25400
CD80 A71D/L72V/E95K IgV-Fc (effector) (Fc fusion),"Jurkat/IL2 reporter RLU at 50 nM, K562/OKT3/PD-L1 aAPC",[1],4030 RLU
same,"Jurkat/IL2 reporter RLU at 50 nM, K562/OKT3/PD-L1 aAPC",[2],4030 RLU
same,"Jurkat/IL2 reporter RLU at 50 nM, K562/OKT3 aAPC without PD-L1",[2],7110 RLU
same,"IL-2 release, primary T cells + K562/OKT3 (No PD-L1), 100 nM",[3],21300
CD80 A71D/L72V/E95K IgV-Fc (inert) (Fc fusion),"Jurkat/IL2 reporter RLU at 50 nM, CHO/OKT3/PD-L1 aAPC",[12],755 RLU
same,"Jurkat/IL2 reporter RLU at 50 nM, CHO/OKT3/PD-L1 aAPC",[13],755 RLU
same,"Jurkat/IL2 reporter RLU at 50 nM, CHO/OKT3 aAPC without PD-L1",[13],644 RLU
variant CD80 IgV-Fc H18Y/A26E/E35D/A71G/D90G (Fc fusion),Fold change to WT CD80,[4],340 fold
same,MFI at 33.3 nM,[4],14800 MFI
same,"IL-2 luciferase reporter, fold increase over WT CD80-IgV-Fc at 5.0 nM",[5],2.45 fold
same,"IL-2 luciferase reporter, fold increase over WT CD80-IgV-Fc at 5.0 nM",[6],2.45 fold
same,Ratio of PDL1:CD28,[7],13.8
same,Fold change to WT CD80,[8],24.5 fold
same,MFI at 33.3 nM,[8],1080 MFI
same,Fold change to WT CD80,[9],-0.1 fold
same,MFI at 33.3 nM,[9],-100 MFI
variant CD80 IgV-Fc E35D/D46V/M47I/A71G/F92V (Fc fusion),MFI at 33.3 nM,[10],7540 MFI
variant CD80 IgV-Fc S15P/Q33L/E35D/M47L/L85Q (Fc fusion),MFI at 33.3 nM,[10],266 MFI
CD80 E35D IgV-Fc (effector) (Fc fusion),"Jurkat/IL2 reporter RLU at 50 nM, K562/OKT3/PD-L1 aAPC",[1],2270 RLU
same,"Jurkat/IL2 reporter RLU at 50 nM, K562/OKT3/PD-L1 aAPC",[2],2270 RLU
same,"Jurkat/IL2 reporter RLU at 50 nM, K562/OKT3 aAPC without PD-L1",[2],1200 RLU
same,"IL-2 release, primary T cells + K562/OKT3 (No PD-L1), 100 nM",[3],8380
variant CD80 IgV-Fc E35D/M47L/A71G/L97Q (Fc fusion),MFI at 33.3 nM,[10],300 MFI
same,MFI at 33.3 nM,[11],226000 MFI
CD80 A26E/E35D/M47L/L85Q IgV-Fc (effector) (Fc fusion),"Jurkat/IL2 reporter RLU at 50 nM, K562/OKT3/PD-L1 aAPC",[1],2640 RLU
same,"Jurkat/IL2 reporter RLU at 50 nM, K562/OKT3/PD-L1 aAPC",[2],2640 RLU
same,"Jurkat/IL2 reporter RLU at 50 nM, K562/OKT3 aAPC without PD-L1",[2],1330 RLU
variant CD80 IgV-Fc A26E/E35D/M43I/M47L/L85Q/K86E/R94W (Fc fusion),MFI at 33.3 nM,[10],314 MFI
same,MFI at 33.3 nM,[11],2950 MFI
CD80 H18Y/A26T/E35D/A71D/L85Q IgV-Fc (effector) (Fc fusion),"Jurkat/IL2 reporter RLU at 50 nM, K562/OKT3/PD-L1 aAPC",[1],5220 RLU
same,"Jurkat/IL2 reporter RLU at 50 nM, K562/OKT3/PD-L1 aAPC",[2],5220 RLU
same,"Jurkat/IL2 reporter RLU at 50 nM, K562/OKT3 aAPC without PD-L1",[2],8750 RLU
same,"IL-2 release, primary T cells + K562/OKT3 (No PD-L1), 100 nM",[3],20600
